Experimental data published in paper doi:10.1101/2020.09.29.319483.

Key:
[1] = molecular target: human glucagon-like peptide-1 receptor (human) (UniProt P43220)
[2] = molecular target: human glucagon-like peptide-1 receptor (human) (UniProt P43220); assay: radioligand binding

Chain of UniProt P43220 (P43220 24-463): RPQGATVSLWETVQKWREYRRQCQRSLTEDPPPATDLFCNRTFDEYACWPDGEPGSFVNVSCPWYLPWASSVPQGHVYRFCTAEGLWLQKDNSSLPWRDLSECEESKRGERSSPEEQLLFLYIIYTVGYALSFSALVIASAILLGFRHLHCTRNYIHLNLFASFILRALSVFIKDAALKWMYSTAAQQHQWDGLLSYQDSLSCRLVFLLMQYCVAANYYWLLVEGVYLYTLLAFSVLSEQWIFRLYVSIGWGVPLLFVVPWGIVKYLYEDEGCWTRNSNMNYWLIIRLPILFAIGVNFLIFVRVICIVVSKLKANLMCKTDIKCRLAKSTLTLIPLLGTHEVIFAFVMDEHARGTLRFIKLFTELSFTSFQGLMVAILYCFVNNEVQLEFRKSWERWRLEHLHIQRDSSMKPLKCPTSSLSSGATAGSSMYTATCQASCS

Substance | cAMP production, candidate selection (CS) CHO-GLP-1R cell line [1] [nM] | Ki [2] [nM]
exenatide (from UniProt P26349 48-87) (peptide) | 0.11 | 0.092
liraglutide (peptide) |  | 4.4
